{"source": "paper PMC12431671", "about": "“Receptor transporter protein 4 (RTP4)-mediated repression of hepatitis C virus replication in mouse cells” (PLOS Pathogens, 2025)", "binders": {"B1": {"name": "FLAG-tagged murine receptor transporter protein 4 (FLAG-mmRTP4) (natural protein)", "chain": "MLFPDDFSTWEQTFQELMQEEKPGAKWSLHLDKNIVPDGAALGWRQHQQTVLGRFQCSRCCRSWTSAQVMILCHMYPDTLKSQGQARMRIFGQKCQKCFGCQFETPKFSTEIIKRILNNLVNYILQRYYGHRKIALTSNASLGEKVTLDGPHDTRNCEACSLNSHGRCALAHKVKPPRSPSPLPKSSSPSKSCPPPPQTRNTDFGNKTFQDFGNRTFQGCREPPQREIEPPLFLFLSIAAFALFSLFTR", "notes": "Receptor transporter protein 4 (RTP4), mouse; also called mouse RTP4; murine RTP4; source: Huh7-Lunet cells, lentivirally transduced (pLVX), HCV-infected, in fixed cells; not shown: FLAG, N-terminal, kept"}}, "target": "T1, HCV NS5A protein (hepatitis C virus J6/JFH1-Jc1, UniProt Q99IB8 1977-2442)", "T1 construct": "NS5A, cut product of the polyprotein of hepatitis C virus J6/JFH1 (Jc1) chimeric genome; Untagged viral protein, detected with the mouse anti-NS5A antibody 9E10 (a tool); NS5A is a stretch of it; source: made by HCV J6/JFH1-Jc1 infection (MOI of 1) of Huh7-Lunet cells, in fixed cells", "T1 sequence": "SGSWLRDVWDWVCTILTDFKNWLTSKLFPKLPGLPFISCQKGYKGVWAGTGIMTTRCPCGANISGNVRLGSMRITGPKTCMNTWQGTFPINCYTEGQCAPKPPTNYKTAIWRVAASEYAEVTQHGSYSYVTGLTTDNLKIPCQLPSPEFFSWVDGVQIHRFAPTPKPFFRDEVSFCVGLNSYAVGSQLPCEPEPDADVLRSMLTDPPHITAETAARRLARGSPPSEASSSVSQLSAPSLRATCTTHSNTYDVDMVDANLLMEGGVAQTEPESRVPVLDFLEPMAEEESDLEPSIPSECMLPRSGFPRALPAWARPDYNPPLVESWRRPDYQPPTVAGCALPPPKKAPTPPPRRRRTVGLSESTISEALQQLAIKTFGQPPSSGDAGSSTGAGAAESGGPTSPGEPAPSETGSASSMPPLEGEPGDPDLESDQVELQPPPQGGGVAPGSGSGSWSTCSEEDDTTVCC", "test": "proximity ligation; in situ PLA (Duolink In Situ Detection Reagents Green) in Huh7-Lunet cells infected with HCV J6/JFH1-Jc1 at MOI 1, transduced with FLAG-mmRTP4 or FLAG-hsRTP4 lentivirus, fixed in methanol 48 h post-transduction; Anti-Rabbit MINUS and Anti-Mouse PLUS probes; foci counted in 10 images per sample", "conditions": "partners not purified"}
{"binder": "B1", "values": [{"measurement": "frequency of PLA foci relative to FLAG-hsRTP4 with NS5A", "result": 2, "unit": "fold"}]}
